In US20110251266, “APTAMER FOR NGF AND USE THEREOF” (Shionogi & Co., Ltd., published 2011):

target: beta-NGF (nerve growth factor) (Homo sapiens, UniProt P01138 P01138:122-241); assay: cell_activity; Neuroscreen-1 neurite outgrowth; conditions: tags: R&D Systems human NGF; chain copies: 2
Description: The neurite outgrowth inhibitory activity of aptamer was evaluated by using Neuroscreen-1 cell, which is a subclone of PC-12 cells. 2500 Cells per well were cultured for one day in an RPMI-1640 medium containing 2.5% horse serum and 1.25% fetal bovine serum in a 96 well flat-bottom plate coated with collagen type IV. A mixed solution of NGF (final concentration 15 ng/ml or 1.1 nM) prereacted in a serum-free RPMI-1640 medium at room temperature or 37° C. for 30 min to 1 hr and an aptamer (final concentration 500-3 nM) was added. Two or three days later, the cytoplasm and nuclei were stained using Cellomics Neurite Outgrowth Kits (manufactured by Thermo Scientific), and neurite length per cell was measured by Cellomics ArrayScan VTI (manufactured by Thermo Scientific). With the neurite length per cell obtained by culturing the cell for 2 days with the addition of NGF alone as inhibitory activity 0%, and that of the cell obtained by NGF free culture as inhibitory activity 100%, the inhibitory activity of the aptamer was calculated from the neurite length per cell obtained by culturing with the addition of NGF and the aptamer in mixture. […] When the inhibitory activity was 0% or below, ‘0%’ is indicated. When it was not less than 100%, ‘100%’ is indicated. The 50% inhibitory concentration was determined from the concentrations at two, above and below points sandwiching the 50% inhibitory activity.

Chain of beta-NGF (nerve growth factor) (P01138 122-241, one chain of several): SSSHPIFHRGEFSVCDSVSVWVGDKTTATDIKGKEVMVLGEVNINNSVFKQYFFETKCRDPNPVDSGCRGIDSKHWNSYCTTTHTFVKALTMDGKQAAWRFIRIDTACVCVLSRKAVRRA

| Binder | IC50 |
| --- | --- |
| UGUGGAGCUGCUUAAACAAGCAAGUGAAAAAAACCACA (ssRNA, 2'-F pyrimidines) [SEQ32 aptamer] | 84.7 nM |
| SEQ83 aptamer (ssRNA, 2'-F pyrimidines) RNA: GGGAGAACUUCGACCAGAAGUUGAAGCUUGAAAAAAACCCAGGAUUAAACAGACAGUAUGUGCGCAUACAUGGAUCCUC | 7.1 nM |
| SEQ54 aptamer (ssRNA, 2'-F pyrimidines) RNA: GGGAGAACUUCGACCAGAAGUCGAAAGUGAAAGAAACUCCAACGAAAGCAUAUGUGCGCAUACAUGGAUCCUCA | 7.6 nM |
| GGGAUAAAAAUAGAGUUUGAUAAACACCUGUAUUAAAACCC (ssRNA, 2'-F pyrimidines) [SEQ30 aptamer] | 57.6 nM |
| GGGAUAAAAAUAGAGUUUGAUAAACACCUGUAUUAAAACCC (ssRNA, 2'-F pyrimidines and some purines, 2'-OMe at most purines including g1-g3 as printed in p174, 5' and 3' idT) [SEQ30(6)] | 58.9 nM |
| GGGAAGCCUGUGGAGCUGCAGGAUGAAAAAAACCCAAA (ssRNA, 2'-F pyrimidines and a23, 2'-OMe at g1 g2 a4 a5 g6 g10 g12 g13 a14 g15 g18 a20 g21 g22 a29-a32 a36-a38, 5' and 3' idT) [SEQ35(6)] | 73.5 nM |
| GGGAAGCCUGUGGAGCUGCAGGAUGAAAAAAACCCAAA (ssRNA, 2'-F pyrimidines, 2'-OMe at g1 g2 a4 a5 g6 g10 g12 g13 a14 g15 g18 a20 g21 g22 a29-a32 a36-a38, 5' and 3' idT) [SEQ35(5)] | 79.8 nM |
| SEQ49 aptamer (ssRNA, 2'-F pyrimidines) RNA: GGGAGAACUUCGACCAGAAGUGAAAGAAACUCCCAAGACGGUAACGAAAGUAUGUGCGCAUACAUGGAUCCUCA | 4.6 nM |
| SEQ51 aptamer (ssRNA, 2'-F pyrimidines) RNA: GGGAGAACUUCGACCAGAAGUUUGAAAGAAACCCAAAAAAACAACAUAUGAACUAUGUGCGCAUACAUGGAUCCUCA | 11.9 nM |
| SEQ64 aptamer (ssRNA, 2'-F pyrimidines) RNA: GGGAGAACUUCGACCAGAAGUUUGAAAGAAACCCAAAACAUUAGCACACAUAUGUGCGCAUACAUGGAUCCUCA | 4.8 nM |
| SEQ37 aptamer (ssRNA, 2'-F pyrimidines) RNA: GGGAGAACUUCGACCAGAAGUUUGAAAGAAACCCAAAGGUGAAACAACAAUAUGUGCGCAUACAUGGAUCCUCA | 6.6 nM |
| SEQ42 aptamer (ssRNA, 2'-F pyrimidines) RNA: GGGAGAACUUCGACCAGAAGUUUGAAAAAAACCCAAAAGAGCAGCAGAGAUAUGUGCGCAUACAUGGAUCCUCA | 6.6 nM |
| SEQ6 aptamer (ssRNA, 2'-F pyrimidines) RNA: GGGAAGCCUGUGGAGCUGCAGGAUGAAAAAAACCCAAAAUUAAAUAAAAAAUAGACGGUGCAUUGUCACCAACAACUGG | 17.7 nM |
| SEQ52 aptamer (ssRNA, 2'-F pyrimidines) RNA: GGGAGAACUUCGACCAGAAGUUUGAAAGAAACCCAAAUAUACAAAACACUAUGUGCGCAUACAUGGAUCCUCA | 6.7 nM |
| SEQ57 aptamer (ssRNA, 2'-F pyrimidines) RNA: GGGAGAACUUCGACCAGAAGUUUGAAAAAAACCCAAACACCGAAGCACAAAUAUGUGCGCAUACAUGGAUCCUCA | 6.4 nM |
| SEQ5 aptamer (ssRNA, 2'-F pyrimidines) RNA: GGGAAGCCUGUGGAGCUGCUUAAACAAGCAAGUGAAAAAAACCACAGCAAAUGUAAAAAGCAUUGUCACCAACAACUGG | 21 nM |
| SEQ38 aptamer (ssRNA, 2'-F pyrimidines) RNA: GGGAGAACUUCGACCAGAAGAGAAUGAAACUCCACAAAGUACAUAAAACAUAUGUGCGCAUACAUGGAUCCUCA | 7.3 nM |
| SEQ39 aptamer (ssRNA, 2'-F pyrimidines) RNA: GGGAGAACUUCGACCAGAAGUGUGAAAAGAACCCAAAUAAAACAACAAUGUAUGUGCGCAUACAUGGAUCCUCA | 6.3 nM |
| SEQ12 aptamer (ssRNA, 2'-F pyrimidines) RNA: GGGAAGCCUGUGGAGCUGCGAAACAGUGAAACAAACCACAGACUGAGAAAGCAGUAACAGCAUUGUCACCAACAACUGG | 43.4 nM |
